Measured values taken from PMC9352680, “A comprehensive thermodynamic model for RNA binding by the Saccharomyces cerevisiae Pumilio protein PUF4”.

T1: PUF4 RNA-binding domain (Saccharomyces cerevisiae, UniProt P25339 537-888)
T1 sequence: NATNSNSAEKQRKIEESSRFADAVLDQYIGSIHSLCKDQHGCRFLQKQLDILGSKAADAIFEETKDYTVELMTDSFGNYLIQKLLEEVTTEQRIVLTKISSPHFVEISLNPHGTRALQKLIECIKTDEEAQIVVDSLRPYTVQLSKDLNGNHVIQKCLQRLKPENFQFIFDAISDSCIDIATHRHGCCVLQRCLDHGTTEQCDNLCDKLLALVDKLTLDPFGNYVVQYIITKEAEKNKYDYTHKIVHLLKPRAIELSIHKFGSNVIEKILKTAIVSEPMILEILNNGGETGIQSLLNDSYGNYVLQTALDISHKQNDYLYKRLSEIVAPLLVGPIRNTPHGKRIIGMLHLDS

B1: Id_ii_S2_P5E.4_K5.3_C5.2_[C-2T]_[T-1C]_H5.3_A5.1_F5.1_T5.2_[T11C] (ssRNA)
RNA: UUUGAUUAAUAUGAUAUCGUUCUUUCUUCACACUUAUUACAUUCUUUCUCGAUAUCAUAUUAAUCUUU
B2: Id_ii_S2_P5E.4_K5.3_C5.2_[C-2T]_[T-1C]_H5.3_A5.1_F5.1_T5.2_[T11A]_[A12T] (ssRNA)
RNA: UUUGAUUAAUAUGAUAUCGUUCUUUCUUCACACUUAUUAAUUUCUUUCUCGAUAUCAUAUUAAUCUUU
B3: Id_ii_S2_P5E.4_K5.3_C5.2_[C-2T]_[T-1C]_H5.3_A5.1_F5.1_T5.2_[A12C] (ssRNA)
RNA: UUUGAUUAAUAUGAUAUCGUUCUUUCUUCACACUUAUUAUCUUCUUUCUCGAUAUCAUAUUAAUCUUU
B4: Id_ii_S2_P5E.4_K5.3_C5.2_[C-2T]_[T-1C]_H5.3_A5.1_F5.1_T5.2 (ssRNA)
RNA: UUUGAUUAAUAUGAUAUCGUUCUUUCUUCACACUUAUUAUAUUCUUUCUCGAUAUCAUAUUAAUCUUU
B5: Id_ii_S2_P5E.4_K5.3_C5.2_[C-2T]_[T-1A]_H5.3_A5.1_F5.1_T5.2_[T11C]_[A12G] (ssRNA)
RNA: UUUGAUUAAUAUGAUAUCGUUCUUUCUUAACACUUAUUACGUUCUUUCUCGAUAUCAUAUUAAUCUUU
B6: Id_ii_S2_P5E.4_K5.3_C5.2_[C-2T]_[T-1A]_H5.3_A5.1_F5.1_T5.2_[T11C] (ssRNA)
RNA: UUUGAUUAAUAUGAUAUCGUUCUUUCUUAACACUUAUUACAUUCUUUCUCGAUAUCAUAUUAAUCUUU
B7: Id_ii_S2_P5E.4_K5.3_C5.2_[C-2T]_[T-1A]_H5.3_A5.1_F5.1_T5.2_[T11A]_[A12C] (ssRNA)
RNA: UUUGAUUAAUAUGAUAUCGUUCUUUCUUAACACUUAUUAACUUCUUUCUCGAUAUCAUAUUAAUCUUU
B8: Id_ii_S2_P5E.4_K5.3_C5.2_[C-2T]_[T-1A]_H5.3_A5.1_F5.1_T5.2_[T11A]_[A12T] (ssRNA)
RNA: UUUGAUUAAUAUGAUAUCGUUCUUUCUUAACACUUAUUAAUUUCUUUCUCGAUAUCAUAUUAAUCUUU
B9: Id_ii_S2_P5E.4_K5.3_C5.2_[C-2T]_[T-1A]_H5.3_A5.1_F5.1_T5.2_[A12C] (ssRNA)
RNA: UUUGAUUAAUAUGAUAUCGUUCUUUCUUAACACUUAUUAUCUUCUUUCUCGAUAUCAUAUUAAUCUUU
B10: Id_ii_S2_P5E.4_K5.3_C5.2_[C-2T]_[T-1A]_H5.3_A5.1_F5.1_T5.2 (ssRNA)
RNA: UUUGAUUAAUAUGAUAUCGUUCUUUCUUAACACUUAUUAUAUUCUUUCUCGAUAUCAUAUUAAUCUUU
B11: Id_ii_S2_P5E.4_K5.3_C5.2_[C-2T]_H5.3_A5.1_F5.1_T5.2_[T11G]_[A12C] (ssRNA)
RNA: UUUGAUUAAUAUGAUAUCGUUCUUUCUUUACACUUAUUAGCUUCUUUCUCGAUAUCAUAUUAAUCUUU
B12: Id_ii_S2_P5E.4_K5.3_C5.2_[C-2T]_H5.3_A5.1_F5.1_T5.2_[T11C]_[A12G] (ssRNA)
RNA: UUUGAUUAAUAUGAUAUCGUUCUUUCUUUACACUUAUUACGUUCUUUCUCGAUAUCAUAUUAAUCUUU
B13: Id_ii_S2_P5E.4_K5.3_C5.2_[C-2T]_H5.3_A5.1_F5.1_T5.2_[T11C]_[A12C] (ssRNA)
RNA: UUUGAUUAAUAUGAUAUCGUUCUUUCUUUACACUUAUUACCUUCUUUCUCGAUAUCAUAUUAAUCUUU
B14: Id_ii_S2_P5E.4_K5.3_C5.2_[C-2T]_H5.3_A5.1_F5.1_T5.2_[T11C]_[A12T] (ssRNA)
RNA: UUUGAUUAAUAUGAUAUCGUUCUUUCUUUACACUUAUUACUUUCUUUCUCGAUAUCAUAUUAAUCUUU
B15: Id_ii_S2_P5E.4_K5.3_C5.2_[C-2T]_H5.3_A5.1_F5.1_T5.2_[T11A]_[A12C] (ssRNA)
RNA: UUUGAUUAAUAUGAUAUCGUUCUUUCUUUACACUUAUUAACUUCUUUCUCGAUAUCAUAUUAAUCUUU
B16: Id_ii_S2_P5E.4_K5.3_C5.2_[C-2T]_H5.3_A5.1_F5.1_T5.2_[T11A]_[A12T] (ssRNA)
RNA: UUUGAUUAAUAUGAUAUCGUUCUUUCUUUACACUUAUUAAUUUCUUUCUCGAUAUCAUAUUAAUCUUU
B17: Id_ii_S2_P5E.4_K5.3_C5.2_[C-2T]_H5.3_A5.1_F5.1_T5.2_[A12C] (ssRNA)
RNA: UUUGAUUAAUAUGAUAUCGUUCUUUCUUUACACUUAUUAUCUUCUUUCUCGAUAUCAUAUUAAUCUUU
B18: Id_ii_S2_P5E.4_K5.3_C5.2_[C-2T]_H5.3_A5.1_F5.1_T5.2_[A12T] (ssRNA)
RNA: UUUGAUUAAUAUGAUAUCGUUCUUUCUUUACACUUAUUAUUUUCUUUCUCGAUAUCAUAUUAAUCUUU
B19: Id_ii_S2_P5E.4_K5.3_C5.2_[C-2T]_H5.3_A5.1_F5.1_T5.2 (ssRNA)
RNA: UUUGAUUAAUAUGAUAUCGUUCUUUCUUUACACUUAUUAUAUUCUUUCUCGAUAUCAUAUUAAUCUUU
B20: Id_ii_S2_P5E.4_K5.3_C5.2_[C-2A]_[T-1C]_H5.3_A5.1_F5.1_T5.2_[T11G]_[A12C] (ssRNA)
RNA: UUUGAUUAAUAUGAUAUCGUUCUUUCUACACACUUAUUAGCUUCUUUCUCGAUAUCAUAUUAAUCUUU
B21: Id_ii_S2_P5E.4_K5.3_C5.2_[C-2A]_[T-1C]_H5.3_A5.1_F5.1_T5.2_[T11C]_[A12G] (ssRNA)
RNA: UUUGAUUAAUAUGAUAUCGUUCUUUCUACACACUUAUUACGUUCUUUCUCGAUAUCAUAUUAAUCUUU

Biological target: T1, PUF4 RNA-binding domain
Assay: Mg; RNA-MaP; 20 mM Na-HEPES pH 7.4, 30 mM KOAc, 0.75 mM MgCl2, 0.1% Tween-20, 5% glycerol, 0.1 mg/mL BSA, 2 mM DTT; 25 C; 0.0125-409.6 nM protein
Details: tags: N-His6-TEV cleaved; C-SNAP kept, Cy3B-labelled; label: tethered on chip by stalled RNA polymerase

Binder | Kd [µM]
B1 | > 2.3
B2 | > 2.3
UCUCUUUGUAAUAUCAUCUCUU (ssRNA) [Ic_S1_P5E.1_K5.1_C5.1_H5.1_A5.1_[T5A]_F5.1_[T9C]_T5.1] | 0.0261
B3 | > 2.3
B4 | 0.751
B5 | > 2.3
B6 | > 2.3
B7 | > 2.3
B8 | > 2.3
B9 | > 2.3
B10 | 0.79
B11 | > 2.3
B12 | > 2.3
UCUCUUUGUAAUAUAAUCUCUU (ssRNA) [Ib_S1_P5E.1_K5.1_C5.1_H5.1_A5.1_[T5A]_F5.1_[T9A]_T5.1] | 0.0033
B13 | 1.93
B14 | 1.53
B15 | > 2.3
B16 | > 2.3
B17 | 1.89
B18 | 1.99
B19 | 0.722
B20 | > 2.3
B21 | > 2.3
